Results published in patent publication US5639728A, “Antineoplastic peptide” (priority 1993, dated 1997).

B1: LT: native-form human lymphotoxin (LT) (protein, UniProt P01374 35-205, looked up)
Lymphotoxin-alpha: LPGVGLTPSAAQTARQHPKMHLAHSTLKPAAHLIGDPSKQNSLLWRANTDRAFLQDGFSLSNNSLLVPTSGIYFVYSQVVFSGKAYSPKATSSPLYLAHEVQLFSSQYPFHVPLLSSQKMVYPGLQEPWLHSMYHGAAFQLTQGDQLSTHTDGIPHLVLSPSTVFFGAFAL

Experiments:
[1] = system: Meth A mouse sarcoma cells; assay: Antitumor effect on Meth A mouse sarcoma transplanted into Balb/c mice; assay type: in vivo; conditions: for Inhibition rate (tumor growth restriction rate): day 21
Experimental: (§1) The following experiments were performed in order to calculate a therapeutic index (ratio of toxicity and effectiveness). 2×10^5 Meth A mouse sarcoma cells were transplanted into the dorsal subcutis of 6-week-old female Balb/c mice in single groups comprising from 5 to 10 animals. Seven days after the tumor transplant, the tested substance was dissolved in physiological saline (9.9×10^7 units/ml, 5×10^7 units/mg), and this solution was administered intravenously to the mice twice per week; a total five times. In a control group, physiological saline alone was administered intravenously.
When 21 days following the transplant had passed, surviving animals were sacrificed, and tumors were excised. The excised tumors were weighed, and a mean tumor weight was calculated in each group. The mean tumor weight in each administration group was compared with the mean tumor weight in the control group, and tumor growth restriction rates were determined.
(§2) Based on the tumor growth restriction rates obtained at various concentrations, concentrations restricting tumor growth by 50% (50% effective dose; ED50 mg/kg) were calculated. In each administration group, when toxicity deaths were observed, a 50% lethal quantity (50% lethal dose; LD50 mg/kg) was calculated. The therapeutic index was taken as the ratio of the 50% lethal quantity (LD50) to the 50% tumor growth restriction quantity (ED50)
(§3) Control Δ10LT^4) was the TNF disclosed in JJP, A, S60-185799.

[2] = previously known; cited from earlier work
[3] = Effect on systolic blood pressure in SD rats; assay type: in vivo, rat; conditions: 1 mg/kg i.v., t-test *P < 0.05 for PΔ10LT, FΔ10LT, Δ10LT, LT, TNFα, -- for FPΔ10LT, MLT
Excerpt: Using 11-week-old Crj:CD(SD) rats 350 to 400 g in weight (Nihon Charles River), effects of each test substance on blood pressure were investigated as follows. The aforementioned rats were given ether anesthesia, hair in the right femoral region was cue with clippers, and the skin was cut open using a small scissors. Xylocaine jelly (local anesthetic) was then applied to the cut skin, and each blood vessel was carefully peeled using a tweezers. After the peeling, an SP10 cannulation tube equipped with a three-way cock (Natsume) was attached to arteries and veins, and 200 unit/ml heparin solution was injected therefrom.
After insertion, the skin was sutured using an automatic stitcher, and the rats were secured to a stationary platform (Natsume, Boormann cage). After securing, air in the three-way cock of the arterial cannula was completely removed, and a polygraph (Nihon Denki Sanei, Model 363 System) pressure transducer was connected. After connection, the polygraph was set up, blood pressure measurement was begun, and when blood pressure and heart rate had stabilized, each tested substance used in the foregoing antitumor effect testing was administered by intravenous injection, and 24 hour systolic blood pressure was measured after administration. […]

[4] = Toxicity deaths (LD50) in Balb/c mice; assay type: in vivo, mouse; conditions: i.v. twice per week, five times; female Balb/c mice
Experimental: as §1, §2, §3

Molecule	Inhibition rate (tumor growth restriction rate) ([1]; 0.23 mg/kg i.v. twice per week, five times) [%]	Inhibition rate (tumor growth restriction rate) ([1]; 0.94 mg/kg i.v. twice per week, five times) [%]	ED50 (50% tumor growth restriction) ([1]; i.v. twice per week, five times, Meth A, female Balb/c mice) [mg/kg]	Treatment coefficient (LD50/ED50) ([1]; therapeutic index, LD50/ED50)	hypotensive effect, in words [2]	Decrease of blood pressure (% of the control value) 24 hours after administration [3] [%]	LD50 [4] [mg/kg]
TNFα	43.3	86.5	0.31	3.5	hypotension is a side effect	-9.6	1.08
B1					also has a hypotensive effect	-10.1	
